# Source: patent US20230125561A1 (PNEUMAGEN, published 2023)
# B1: Neumifil (HEX17: trimeric (hexavalent) form based on S. pneumoniae CBM40) (designed binder)
# chain: GAMVIEKEDVETNASNGQRVDLSSELDKLKKLENATVHMEFKPDPKAPAFYNLFSVSSATKKDEYFTMAVYNNTATLEGRGSDGKQFYNNYNDAPLKVKPGQWNSVTFTVEKPTAELPKGRARLYVNGGLSRTSLRSGNFIKDMPDVTHVQIGATKRANNTVWGSNLQIRNLTVYNRALTPEEVQKRSGGGSGVIEKEDVETNASNGQRVDLSSELDKLKKLENATVHMEFKPDPKAPAFYNLFSVSSATKKDEYFTMAVYNNTATLEGRGSDGKQFYNNYNDAPLKVKPGQWNSVTFTVEKPTAELPKGRARLYVNGGLSRTSLRSGNFIKDMPDVTHVQIGATKRANNTVWGSNLQIRNLTVYNRALTPEEVQKRSGGSLGVPDFESDWFDVSSNSLYTLSHGLQRSPRRVVVEFARSSSPSTWNIVMPSYFNDGGHKGSGAQVEVGSLNIKLGTGAAVWGTGYFGGIDNSATTRFATGYYRVRAWI
# notes: also called CBM2
# Columns and labels:
# [1] = biological target: T1, SARS-CoV-2 Spike S1 protein, Wuhan (Wuhan-Hu-1, Dec 2019 isolate) (SARS-CoV-2, UniProt P0DTC2 16-685); assay: ELISA: Spike S1 immobilised at 1 µg/mL, Neumifil titrated, detected with rabbit anti-Neumifil and HRP anti-rabbit IgG, 4PL fit
# T1 construct: domain: S1; also called original Spike protein
# [2] = biological target: T2, recombinant human ACE2 (Angiotensin-converting enzyme 2) (human, UniProt Q9BYF1 18-740); assay: ELISA: ACE2 immobilised at 1 µg/mL, Neumifil titrated, detected with rabbit anti-Neumifil and HRP anti-rabbit IgG, 4PL fit
# T2 construct: Bought recombinant protein
# T2 sequence (Q9BYF1 18-740 limits assumed): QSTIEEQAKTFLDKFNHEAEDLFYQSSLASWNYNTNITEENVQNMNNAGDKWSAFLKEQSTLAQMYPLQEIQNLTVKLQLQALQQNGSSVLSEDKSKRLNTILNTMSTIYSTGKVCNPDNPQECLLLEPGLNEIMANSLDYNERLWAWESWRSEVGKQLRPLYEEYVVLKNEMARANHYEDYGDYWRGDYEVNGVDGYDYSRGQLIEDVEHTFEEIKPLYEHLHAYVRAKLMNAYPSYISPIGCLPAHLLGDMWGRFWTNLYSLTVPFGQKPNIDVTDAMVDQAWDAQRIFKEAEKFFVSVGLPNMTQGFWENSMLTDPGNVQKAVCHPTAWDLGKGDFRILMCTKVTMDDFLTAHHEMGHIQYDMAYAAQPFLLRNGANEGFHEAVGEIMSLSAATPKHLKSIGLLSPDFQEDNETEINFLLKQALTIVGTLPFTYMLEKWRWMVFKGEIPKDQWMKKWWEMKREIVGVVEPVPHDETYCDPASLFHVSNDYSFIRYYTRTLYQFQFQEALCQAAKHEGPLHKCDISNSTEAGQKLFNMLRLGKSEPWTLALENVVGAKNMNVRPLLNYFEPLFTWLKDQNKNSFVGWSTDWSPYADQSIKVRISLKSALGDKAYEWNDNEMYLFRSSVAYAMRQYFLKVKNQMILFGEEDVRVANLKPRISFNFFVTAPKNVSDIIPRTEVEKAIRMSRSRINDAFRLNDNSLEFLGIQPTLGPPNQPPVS
binder,measurement,setting,value
B1,EC50,[1],0.174 mg/L
same,EC50,[2],0.235 mg/L
